The text below walks through data of the DeepSol protein solubility set.

A short description of the data set: soluble on expression in E. coli; label from the status in PepcDB or PDB records.
For the sequence “MYEQACTTILVGKKATVDGSTMIARNDDTFMPITPQKFIVHPAVHGRNETLTSGKNGFTAPLPADGYRYQAVPNIEVAEKGVFEENGFNEKNVGVSSTESVYGNEHTLTFDPFVPNGLAEDSLPTMLTPFIDSARGGVEYLGQLIAKYGSPEGNGVLFNDKDDVWYMEIVTGHHWVAQRIPDDAYAVAANQVAIQWVDFDDPDNFMWSDGIQEFVAEHHLNPDKEGFNFRHIFGTDNEKDRHYNTPRVWYGQRYFNPEIEQDPQSSELPFICHAAKKISVADVEFVLGSHYNETKYDPFLNTPEAKKFRPISMNRTQNSHVMQVRNDVPAEQSAIMWMTFGVPAFAPYLPFHANVSETDPSFANTPLKHDMNSAYWLYRTLSMIVESHYADFVQDDIDYLKECRIELGQFVAATDEQAAKLSGDELTAFLTEQDKVMVAKMRDKAQALIGQLVTKGLTLSKLTYNVDINLLEHHHHHH”, the “soluble on expression in E. coli” value is given as “not soluble”. The result for “MYETQVQELSPEEAKRLYDQGVPFFDVREVEEYAQARIPGARLLPLSEFMARYGEIPKDTPVVLYCRTGNRSWQAAAWLSAQGYRVYNLEGGIVRWYRAGLPVDTTPMEAAYRATPYQEVGPEEAKALLEEAFVVDVREAWEYGEGHVPGAVNIPLSTLPQRLAELPKDRPILLVCNSGNRSGVAAEFLVAQGFDGERVYNLEGGTYAWASRGLPLER” reads “soluble”; that for “MYETYHSGWIECITGSMFSGKSEELIRRLRRGIYAKQKVVVFKPAIDDRYHKEKVVSHNGNAIEAINISKASEIMTHNLTNVDVIGIDEVQFFDDEIVSIVEKLSADGHRVIVAGLDMDFRGEPFEPMPKLMAVSEQVTKLQAVCAVCGSSSSRTQRLINGKPAKIDDPIILVGANESYEPRCRAHHIVAPSDNNKEEL”, “not soluble”.

As for “MYGILCLSLRRIFQWHTYSMVRIHSLNTMNILTNLEFSFPILYSYETLNTMLRKQRRLYMPRTNYIDIMEKNHMEIPWHDYTNADSNALIANADLIEKASVIGRVGLIMLSCGTGAWRVRTSMNKLSKELGVTCTVDVGLMSIEFNCFDGNDCVSQSLSIANTGVNTSKLYRMEQFVDNFPNEEAHLTGEMIHKRLDEIEQIHTLYSPVKLG”, the “soluble on expression in E. coli” value is on record as “not soluble”. The result for “MYIGIDLGTSGVKVILLNEQGEVVASQTEKLTVSRPHPLWSEQDPEQWWQATDRAMKALGDQHSLQDVKALGIAGQMHGATLLDAQQRVLRPAILWNDGRCAQECTLLEARVPQSRVITGNLMMPGFTAPKLLWVQRHEPEIFRQIDKVLLPKDYLRLRMTGEFASDMSDAAGTMWLDVAKRDWSDVMLQACDLSRDQMPALYEGSEITGALLPEVAKAWGMATVPVVAGGGDNAAGAVGVGMVDANQAMLSLGTSGVYFAVSEGFLSKPESAVHSFCHALPQRWHLMSVMLSAASCLDWAAKLTGLCNVPALIAAAQQADESAEPVWFLPYLSGERTPHNNPQAKGVFFGLTHQHGPNELARAVLEGVGYALADGMDVVHACGIKPQSVTLIGGGARSEYWRQMLADISGQQLDYRTGGDVGPALGAARLAQIAANPEKSLIELLPQLPLEQSHLPDAQRYAAYQPRRETFRRLYQQLLPLMA” reads “not soluble”.

As for “MYIQVLGSAAGGGFPQWNCNCVNCKGYRDGTLKATARTQSSIALSDDGVHWILCNASPDIRAQLQAFAPMQPARALRDTGINAIVLLDSQIDHTTGLLSLREGCPHQVWCTDMVHQDLTTGFPLFNMLSHWNGGLQWNRIELEGSFVIDACPNLKFTPFPLRSAAPPYSPHRFDPHPGDNLGLMVEDTRTGGKLFYAPGLGQVDEKLLAMMHGADCLLVDGTLWEDDEMQRRGVGTRTGREMGHLAQNGPGGMLEVLDGFPRQRKVLIHINNTNPILDENSPERAEVLRRGVEVAFDGMSIELLEHHHHHH”, the “soluble on expression in E. coli” value is “soluble”. Turning to “MYIVIMGAGRIGTLVARMLESEGHDVAIIEMNRERAREISEYISGLVIEGDATDQKVLENANIKNANAFAALTGKDDANILACILAKHLNPNIMTILRITDPGKKKIFEDVKELKTYFDIVVSPEDIAANYIFRTLVTPGFNRVLLPREGAEIIQFQIDEDCEVAGKPVKELNLPKDSLIIAVYDEKGNLTIPSGDTIIPKKGQVIIFAKNSALQEVKKIMEKKKKEQ”, the “soluble on expression in E. coli” value is reported as “soluble”. The result for “MYIVNSNKSRGSSVERYIVSRLRDKGFAVIRAPASGSKRKDHVPDIIALKSGVIILIEVKSRKNGQKIYIEKEQAEGIREFAKRSGGELFLGVKLPKMLRFIKFDMLRQTEGGNYAIDLETVEKGMELEDLVRYVESKISRTLDSFL” reads “soluble”; that for “MYKATVIIKLKKGVLNPEGRTIQRALNFLGFNNVKEVQTYKMIDIIMEGENEEKVKEEVEEMCKKLLANPVIHDYEIKVEKIE”, “soluble”; that for “MYKLSGKAVEDFRGIYDYTLGKFGDEQADRYTDSLGTFLDTLSQMPEIGQDYDAIPEVKKIAFRFHTVYYVIRVDDILIARILHQLMEPRRHW”, “soluble”. The result for “MYKPKNINSVLTFYKDQIQLVVSDDQNQFNILFYQTIDNDGFYSKQQLKNKLRLKLALNQLVDQANYFLGFKLEKVVVVLAELIDDLKIHNFKSEIFFTGYDFDHKAMIKKEKQRFCEQNNQLTVMDTMVLNYHDVINNKITKSFAFNKSYVANLVAYSSKSNLIGELKFFLKRNVNLKVKKIISHHLALANSLSKKQNNMFVYLGQKTTELMLFMDNALVDVITNQFGKNHFIDIPANQENKPLLEFLVDNTTKIGDCYSLGMTYTDGDSYKEIKALTIGDLMQTVSDKIKTLIDFINSGSLTFFNKFKTLPKLLYFYTRSKQITNLFQANVALINPQFKTVDIYKNKIQFISENYLLSCEAISLQITNRIKNQISFDFTNADNIQKPKPKKHFMILSKHLTKFVQRLVK” reads “soluble”; that for “MYLACLAKFSQNVELRKMLFRTQDMYLVEASGNDAIWGNGIWKEDKRSDDVANWHGTNYLGEILDRIRGELIGKPEFAAEKEAVQLESLEQRIQMLMA”, “not soluble”. Next, “MYMSSLQSTRERVLGTPRRRYKVLVAKMGLDGHDRGAKVVARALRDAGFEVVYTGLRQTPEQVAMAAVQEDVDVIGVSILNGAHLHLMKRLMAKLRELGADDIPVVLGGTIPIPDLEPLRSLGIREIFLPGTSLGEIIEKVRKLAEEKRMREEAEASEQVGQA”: “soluble”.

For “MYNDPRSHGLWEKTAPQPPVTPALQGDAVADVVVVGGGFTGQSAALHLAEGGLDVILLEAKEIGFGGAGRNVGLINGGMWVMPKELPDVLGETYGERLLDLLGDAPVLVRELVEKHGIPCEIEKNGTLHCAVGEKGLAEIRERCEQWSARGAPVRVLDADETASYIGSTAYSGALLDSRAGTIQPLAYVRGLAGAALKAGVRLHTASPVNETGRNGAKWVVKTPEGSVTAKWIVVATEAYSTGPWQIIREEQVYLPYFNFATRPLSDNLQKSILPGRQGCWDTKEILSSFRMDKAGRLVFGSVGALRGTGTAIHRAWAKRSLKRLFPQLGDTEFECEWYGQIGMTDNAVPRFHKFAENVIGFSGYNGRGIAPGTAFGKVIAQHILGEIAEADLPLPVTEPKAQAFRAVKEAYYEAGAQIAHFAGERFLEHHHHHH”, the “soluble on expression in E. coli” value is “not soluble”. With “MYNGIGLQTARGSGTNGYVQSNLSHLMQARRKIEYNGEDDLRKMEAELNRKPNEEIMDHNRKRQIEVKCTEFEMLLEDKGLDDEDIERKVGEYRKNLLKQLESGELNVDEELSTKESHARRRAAANNRDKMRNALGLGEDYVPGSSMAKMNKSDVVGAAMESELPQKDDKEKLLETLRLHRKSKKKQESSSSSSSSSSSSESSSEDEKHRKDRKKKEKKQKLKEMEKRREKLRQKERELLAVSDKVKKEEPAESSDEEDSRKDQRKPREDRRRSVERQDQREDRRDRRRSPEDPRERRRSPEDRTVRRRSPERRRQQRSPSVERRKSPQRRDERRRRHDSSENERRSTATASKKSRMDELEVKQEPPSDSEDYIAKTNLAPIRVEKSAEKVEKSRKSSSESSSGSSDSDSSSDSSSSSDSSSDSE”, the “soluble on expression in E. coli” value is on record as “not soluble”. As for “MYNKDDVLKQADNIANKIKNLDTIKTYQQIEAQIHQNQTIKTKMDMLKKHQKQAVNFQNYGKQNALEQSEHTIQSIEAEINTLPIVEQFQTSQYEANQLLKMFVSTMETRLNDHNKAKHSDLEHHHHHH”, the “soluble on expression in E. coli” value is given as “not soluble”. Turning to “MYPQQTSAAVGARKMRVVGVVEETHDARSILVEPHPEHIDAFDYRPGQFLTVRVPDVGSGTARCYSLSSSPHVDSTMKFTVKRVAGGHGSNWLCDEIALGDELEVLPPAGTFTVRSLDQSVVLVAGGSGITPVIAIAKSILHAGTGTVLLVYANRDERSVIFGEQLRELGERFGSRFTVIHVLESVQGYLTAPAMSNLIRPFTDRAVYICGPEPLMKLVKAVCSAEGIAPSQVMTERFVSLSTDPFRNPVEDKPSTSDTGVEVSAQDEAAAGDCTVHVSLDGTERTVAWPRSKRLLDALLDAGVEAPFSCREGACSACVCSLTEGEVRLVRNEVLEADDLADGYILACQAEVVTDQISIKY”, the “soluble on expression in E. coli” value was “not soluble”. Regarding “MYPSIKETMRVQLSMEGSVNYHAFKCTGKGEGKPYEGTQSLNITITEGGPLPFAFDILSHAFQYGIKVFAKYPKEIPDFFKQSLPGGFSWERVSTYEDGGVLSATQETSLQGDCIICKVKVLGTNFPANGPVMQKKTCGWEPSTETVIPRDGGLLLRDTPALMLADGGHLSCFMETTYKSKKEVKLPELHFHHLRMEKLNISDDWKTVEQHESVVASYSQVPSKLGHN”, the “soluble on expression in E. coli” value is on record as “soluble”. Next, “MYQNILVPLDGSDNAYMALKHAVKLAQTFKSKLFLVNVIDITRLNAYSPAAYGGTLYTNLLKVAKDNSQDILDRGQQMASAAQVESLPIQVNSSPKASIATDIPKKYAIDLIVMGKSGTNAVSRILLGSTTAYVVQKAEVNVTVIN”: “not soluble”; “MYVNKQEIIKNIQKLSPKSPAEYIEKDGCFMLTCPENTYPSFFSQFQYSEIPPPGNLIPQNALEISPPTSLEEMGGASLSEYFGIICDDGVWKLTKYPNGITFNKDPPSYTNGSLNGYKTEIFTMNCY”: “not soluble”.

Turning to “MYVTIVYASVKTDKTEAFKEATRMNHEQSIREPGNMRFDILQSADDPTRFVLYEAYKTRKDAAAHKETAHYLTWRDTVADWMAEPRKGVIYGGLYPTGDD”, the “soluble on expression in E. coli” value is listed as “soluble”. The result for “MYWLFKSEPFKWSWEMQKARGEKGEQWDGVRNYQARNNMRAMKLGDKGFFYHSNEGLEVVGIVEVCALAHPDSTTDDPRWECVDIKAVRDMPKPVTLKDVKANPRLQDMSLVTSMRLSVQPVTEDEWIEVCRMGGLDANDILEHHHHHH” reads “soluble”; that for “MYYLELALGTQEMEAIVGKVTEVNKDTFWPIVKAAGDKPVVLDMFTQWCGPCKAMAPKYEKLAEEYLDVIFLKLDCNQENKTLAKELGIRVVPTFKILKENSVVGEVTGAKYDKLLEAIQAARS”, “soluble”; that for “NAKVKRIRLGNLKKTVKLYDLIDEFHSTTLENLKNGLRTGRGYCIEINKQVVSMAKSTSENRTHAMIIGVGTHPKYRAKGLATKCLIKLCSELLRENKIPCLFYDNEEAGKIYKKLGFENIGKWGIYSK”, “not soluble”. Turning to “NAQARFSQNLLDQGSHPTSEKLLSVLRPASGHVADALGITEGENVIHLRTLRRVNGVALCLIDHYFADLTLWPTLQRFDSGSLHDFLREQTGIALRRSQTRISARRAQAKECQRLEIPNMSPLLCVRTLNHRDGESSPAEYSVSLTRADMIEFTMEH”, the “soluble on expression in E. coli” value is “soluble”. With “NATTLPEALKLMQYIGDAIGTIRDPQELFRTVTDKLRLLFAFDSAVIITIDRERREASVFFEMLRFELPEQLRHQTRSIAGTWLEGHLDDRTVTVASIARDIPSFGADGAPLLWTLHELGMRQIVLSPLRSGGRVIGFLSFVSAEEKLWSDGDKSLLSGVSSSIAIAVSNALAYEELRQREAETSMQLAINNALFTI”, the “soluble on expression in E. coli” value is recorded as “soluble”.
